B1: SEQ ID NO 67 (receptor)
chain: MHLPKPTLWAEPGSVITMDQPVTLRCQGGQETQEYRLYREKKTAPWITRIPQELVKKGQFPIPSITWEHAGRYRCYYGSDTSQWSASSDPLELVVTGVYIKPTLSAQPSPVVNSGGNVTLQCDSQVAFDGFILCKEGEDEHPQCLNSQPHARGSSRAIFSVGPVSPSRRWWYRCYAYDSNSPYEWSLPSDLLELDVDGC
notes: mutated soluble two domain ILT-2
B2: SEQ ID NO 29 (receptor)
chain: MHLPKPTLWAEPGSVITLQSPVTLRCQGGQETQQYRLYREKKTAPWITRIPQELVKKGQFPIPSITWEHAGRYRCYYGSDTRQWSASSDPLELVVTGVYIKPTLSAQPSPVVNSGGNVTLQCDSQVAFDGFILCKEGEDDHPQCLNSQPHARGSSRAIFSVGPVSPSRRWRYRCYAYMSWSPYEWSLPSDLLELDVDG
notes: as for B1
B3: SEQ ID NO 110 (receptor)
chain: MHLPKPTLWAEPGSVITMDQPVTLRCQGGQETQEYRLYREKKTAPWITRIPQELVKKGQFPIPSITWEHAGRYRCYYGSDTSQWSASSDPLELVVTGVYIKPTLSAQPSPVVNSGGNVTLQCDSQVAFDGFILCKEGEDEHPQCLNSQPHARGSSRAIFSVGPVSPSRRWRYRCYAYDSNSPYEWSLPSDLLELDVDG
notes: as for B1
B4: SEQ ID NO 49 (receptor)
chain: MHLPKPTLWAEPGSVITLQSPLTLRCQGGQETQQYRLYREKKTAPWITRIPQELVKKGQFPIPSITWEHAGRYRCYYGSDTRQWSASSDPLELVVTGVYIKPTLSAQPSPVVNSGGNVTLQCDSQVAFDGFILCKEGEDDHPQCLNSQPHARGSSRAIFSVGPVSPSRRWRYRCYAYMSWSPYEWSLPSDLLELDVDG
notes: as for B1
B5: SEQ ID NO 122 (receptor)
chain: MHLPKPTLWAEPGSVITMDQPVTLRCQGGQETQEYRLYREKKTAPWITRIPQELVKKGQFPIPSITWEHAGRYRCYYGTQTSQWSASSDPLELVVTGVYIKPTLSAQPSPVVNSGGNVTLQCDSQVAFDGFILCKEGEDEHPQCLNSQPHARGSSRAIFSVGPVSPSRRWWYRCYAYDSNSPYEWSLPSDLLELDVDG
notes: as for B1
B6: SEQ ID NO 120 (receptor)
chain: MHLPKPTLWAEPGSVITMDQPVTLRCQGGQETQEYRLYREKKTAPWITRIPQELVKKGQFPIPSITWEHAGRYRCVIQRGTAGRSESSDPLELVVTGVYIKPTLSAQPSPVVNSGGNVTLQCDSQVAFDGFILCKEGEDEHPQCLNSQPHARGSSRAIFSVGPVSPSRRWWYRCYAYDSNSPYEWSLPSDLLELDVDG
notes: as for B1
B7: SEQ ID NO 113 (receptor)
chain: MHLPKPTLWAEPGSVITLGQPVTLRCQGGQETQEYRLYREKKTAPWITRIPQELVKKGQFPIPSITWEHAGRYRCYYGSDTSQWSASSDPLELVVTGVYIKPTLSAQPSPVVNSGGNVTLQCDSQVAFDGFILCKEGEDEHPQCLNSQPHARGSSRAIFSVGPVSPSRRWWYRCYAYDSNSPYEWSLPSDLLELDVDG
notes: as for B1
B8: SEQ ID NO 117 (receptor)
chain: MHLPKPTLWAEPGSVITLESPVTLRCQGGQETQEYRLYREKKTAPWITRIPQELVKKGQFPIPSITWEHAGRYRCYYGSDTSQWSASSDPLELVVTGVYIKPTLSAQPSPVVNSGGNVTLQCDSQVAFDGFILCKEGEDEHPQCLNSQPHARGSSRAIFSVGPVSPSRRWWYRCYAYDSNSPYEWSLPSDLLELDVDG
notes: as for B1
B9: SEQ ID NO 121 (receptor)
chain: MHLPKPTLWAEPGSVITMDQPVTLRCQGGQETQEYRLYREKKTAPWITRIPQELVKKGQFPIPSITWEHAGRYRCYYGGQEGARSESSDPLELVVTGVYIKPTLSAQPSPVVNSGGNVTLQCDSQVAFDGFILCKEGEDEHPQCLNSQPHARGSSRAIFSVGPVSPSRRWWYRCYAYDSNSPYEWSLPSDLLELDVDG
notes: as for B1
B10: SEQ ID NO 116 (receptor)
chain: MHLPKPTLWAEPGSVITLQSPVTLRCQGGQETQEYRLYREKKTAPWITRIPQELVKKGQFPIPSITWEHAGRYRCYYGSDTSQWSASSDPLELVVTGVYIKPTLSAQPSPVVNSGGNVTLQCDSQVAFDGFILCKEGEDEHPQCLNSQPHARGSSRAIFSVGPVSPSRRWWYRCYAYDSNSPYEWSLPSDLLELDVDG
notes: as for B1
B11: SEQ ID NO 126 (receptor)
chain: MHLPKPTLWAEPGSVITMDQPVTLRCQGGQETQEYRLYREKKTAPWITRIPQELVKKGQFPIPSITWEHAGRYRCYYGSDTSQWSASSDPLELVVTGVYIKPTLSAQPSPVVNSGGNVTLQCDSQVAFDGFILCKEGEDEHPQCLNSQPHARGSSRAIFSVGPVSPSRRWWYRCYAYDSNSPYEWSDPSDLLELDVDG
notes: as for B1
B12: SEQ ID NO 119 (receptor)
chain: MHLPKPTLWAEPGSVITMDQPVTLRCQGGQETQEYRLYREKKTAPWITRIPQELVKKGQFPIPSITWEHAGRYRCMQYTLTAGRSESSDPLELVVTGVYIKPTLSAQPSPVVNSGGNVTLQCDSQVAFDGFILCKEGEDEHPQCLNSQPHARGSSRAIFSVGPVSPSRRWWYRCYAYDSNSPYEWSLPSDLLELDVDG
notes: as for B1
B13: SEQ ID NO 50 (receptor)
chain: MHLPKPTLWAEPGSVITLQSPLTLRCQGGQETQQYRLYREKKTAPWITRIPQELVKKGQFPIPSITWEHAGRYRCYYGSDTRQWSASSDPLELVVTGVYIKPTLSAQPSPVVNSGGNVTLQCDSQVAFDGFILCKEGEDDHPQCLNSQPHARGSSRAIFSVGPVSPSRRWRYRCYAYMSWAPYEWSLPSDLLELDVDG
notes: as for B1
B14: SEQ ID NO 114 (receptor)
chain: MHLPKPTLWAEPGSVITLGSPVTLRCQGGQETQEYRLYREKKTAPWITRIPQELVKKGQFPIPSITWEHAGRYRCYYGSDTSQWSASSDPLELVVTGVYIKPTLSAQPSPVVNSGGNVTLQCDSQVAFDGFILCKEGEDEHPQCLNSQPHARGSSRAIFSVGPVSPSRRWWYRCYAYDSNSPYEWSLPSDLLELDVDG
notes: as for B1
B15: SEQ ID NO 111 (receptor)
chain: MHLPKPTLWAEPGSVITMDQPVTLRCQGGQETQEYRLYREKKTAPWITLIPQELVKKGQFPIPSITWEHAGRYRCYYGSDTSQWSASSDPLELVVTGVYIKPTLSAQPSPVVNSGGNVTLQCDSQVAFDGFILCKEGEDGHPQCLNSQPHARGSSRAIFSVGPVSPSRRWWYWCYAYDSNSPYEWSLPSDLLELDVDG
notes: as for B1
B16: SEQ ID NO 118 (receptor)
chain: MHLPKPTLWAEPGSVITMDQPVTLRCQGGQETQEYRLYREKKTAPWITRIPQELVKKGQFPIPSITWEHAGRYRCYYGTQTAGRSESSDPLELVVTGVYIKPTLSAQPSPVVNSGGNVTLQCDSQVAFDGFILCKEGEDEHPQCLNSQPHARGSSRAIFSVGPVSPSRRWWYRCYAYDSNSPYEWSLPSDLLELDVDG
notes: as for B1
B17: SEQ ID NO 127 (receptor)
chain: MHLPKPTLWAEPGSVITMDQPVTLRCQGGQETQEYRLYREKKTAPWITRIPQELVKKGQFPIPSITWEHAGRYRCYYGSDTSQWSASSDPLELVVTGVYIKPTLSAQPSPVVNSGGNVTLQCDSQVAFDGFILSKEGEDEHPQSLNSQPHARGSSRAIFSVGPVSPSRRWWYRCYAYDSNSPYEWSLPSDLLELDVDG
notes: as for B1
B18: SEQ ID NO 42 (receptor)
chain: MHLPKPTLWAEPGSVITLQSPLTLRCQGGQETQQYRLYREKKTAPWITRIPQELVKKGQFPIPSITWEHAGRYRCYYGSDTRQWSASSDPLELVVTGVYIKPTLSAQPSPVVNSGGNVTLQCDSQVAFDGFILCKEGEDDHPQCLNSQPHARGSSRAIFSVGPVSPSRRWRYRCYAYDSNSPYEWSLPSDLLELDVDG
notes: as for B1
B19: SEQ ID NO 115 (receptor)
chain: MHLPKPTLWAEPGSVITLRSPVTLRCQGGQETQEYRLYREKKTAPWITRIPQELVKKGQFPIPSITWEHAGRYRCYYGSDTSQWSASSDPLELVVTGVYIKPTLSAQPSPVVNSGGNVTLQCDSQVAFDGFILCKEGEDEHPQCLNSQPHARGSSRAIFSVGPVSPSRRWWYRCYAYDSNSPYEWSLPSDLLELDVDG
notes: as for B1
B20: SEQ ID NO 124 (receptor)
chain: MHLPKPTLWAEPGSVITMDQPVTLRCQGGQETQEYRLYREKKTAPWITRIPQELVKKGQFPIPSITWEHAGRYRCYYGSDTSQWSASSDPLELVVTGVYIKPTLSAQPSPVVNSGGNVTLQCDSQVAFDGFILCKEGEDEHPQCDNSQPHARGSSRAIFSVGPVSPSRRWWYRCYAYDSNSPYEWSLPSDLLELDVDG
notes: as for B1
B21: SEQ ID NO 112 (receptor)
chain: MHLPKPTLWAEPGSVITMDQPVTLRCQGGQETQEYRLYRERKTAPWITRIPQELVKKGQFPIPSITWEHAGRYRCYYGSDTSQWSASSDPLELVVTGVYIKPTLSAQPSPVVNSGGNVTLQCDSQVAFDGFILCKEGEDEHPQCLNSQPHARGSSRAIFSVGPVSPSRRWWYRCYAYDSNSPYEWSLPSDLLELDVDG
notes: as for B1
B22: SEQ ID NO 125 (receptor)
chain: MHLPKPTLWAEPGSVITMDQPVTLRCQGGQETQEYRLYREKKTAPWITRIPQELVKKGQFPIPSITWEHAGRYRCYYGSDTSQWSASSDPLELVVTGVYIKPTLSAQPSPVVNSGGNVTLQCDSQVAFDGFILCKEGEDEHPQCLNSQPHARGSSRAEFSVGPVSPSRRWWYRCYAYDSNSPYEWSLPSDLLELDVDG
notes: as for B1
B23: SEQ ID NO 60 (receptor)
chain: MGHLPKPTLWAEPGSVITMDQPVTLRCQGGQETQQYRLYREKKTAPWITRIPQELVKKGQFPIPSITWEHAGRYRCYYGSDTRQWSASSDPLELVVTGVYIKPTLSAQPSPVVNSGGNVTLQCDSQVAFDGFILCKEGEDDHPQCLNSQPHARGSSRAIFSVGPVSPSRRWRYRCYAYDSNSPYEWTRGSDLLELDVDG
notes: as for B1

Target: T1, HLA-A*0201 loaded with the Carcinoembryonic antigen (CEA)-derived … peptide (biotin on the C-terminal biotinylation tag)
T1 construct: Soluble, biotinylated, immobilised on a streptavidin chip
Test: Biacore SPR
Summary of the method: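 Surface plasmon resonance: soluble ILT-like molecule flowed at constant rate over flow cells bearing biotin-tag-captured peptide–MHC. Binding followed as RU change to derive affinity and kinetics.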

Question: What does the source list for B1?
Answer: Kd: ≤ 1000 nM; koff: ≤ 2 s⁻¹

Question: Which Kd does the source give for B2 here?
Answer: Its Kd is no more than 1000 nM.

Question: And the koff?
Answer: The koff was no more than 2 s⁻¹.

Question: What does the source list for B3?
Answer: Kd: ≤ 1000 nM; koff: ≤ 2 s⁻¹

Question: With B4 as the binder, how does the Kd read?
Answer: The Kd was no more than 1000 nM.

Question: What about the koff of the same binder?
Answer: The koff was no more than 2 s⁻¹.

Question: Which Kd does the source give for B5 here?
Answer: The Kd was no more than 1000 nM.

Question: And the koff?
Answer: The koff was no more than 2 s⁻¹.

Question: Which results are given for B6?
Answer: Kd: ≤ 1000 nM; koff: ≤ 2 s⁻¹

Question: How did the Kd turn out when B7 was run?
Answer: Its Kd is no more than 1000 nM.

Question: And the koff?
Answer: The koff was no more than 2 s⁻¹.

Question: Which results are given for B8?
Answer: Kd: ≤ 1000 nM; koff: ≤ 2 s⁻¹

Question: What does the source list for B9?
Answer: Kd: ≤ 1000 nM; koff: ≤ 2 s⁻¹

Question: What does the source list for B10?
Answer: Kd: ≤ 1000 nM; koff: ≤ 2 s⁻¹

Question: Which results are given for B11?
Answer: Kd: ≤ 1000 nM; koff: ≤ 2 s⁻¹

Question: With B12 as the binder, how does the Kd read?
Answer: The Kd was no more than 1000 nM.

Question: What about the koff of the same binder?
Answer: Its koff is no more than 2 s⁻¹.

Question: For B13, which Kd is on record?
Answer: Its Kd is no more than 1000 nM.

Question: What about the koff of the same binder?
Answer: The koff was no more than 2 s⁻¹.

Question: With B14 as the binder, how does the Kd read?
Answer: Its Kd is no more than 1000 nM.

Question: What about the koff of the same binder?
Answer: The koff was no more than 2 s⁻¹.

Question: Which Kd does the source give for B15 here?
Answer: Its Kd is no more than 1000 nM.

Question: What about the koff of the same binder?
Answer: The koff was no more than 2 s⁻¹.

Question: B16 was tested. Which Kd did it give?
Answer: Its Kd is no more than 1000 nM.

Question: And the koff?
Answer: The koff was no more than 2 s⁻¹.

Question: With B17 as the binder, how does the Kd read?
Answer: The Kd was no more than 1000 nM.

Question: And the koff?
Answer: Its koff is no more than 2 s⁻¹.

Question: For B18, which Kd is on record?
Answer: The Kd was no more than 1000 nM.

Question: What about the koff of the same binder?
Answer: Its koff is no more than 2 s⁻¹.

Question: For B19, which Kd is on record?
Answer: Its Kd is no more than 1000 nM.

Question: And the koff?
Answer: The koff was no more than 2 s⁻¹.

Question: Which Kd does the source give for B20 here?
Answer: The Kd was no more than 1000 nM.

Question: And the koff?
Answer: The koff was no more than 2 s⁻¹.

Question: Which Kd does the source give for B21 here?
Answer: The Kd was no more than 1000 nM.

Question: What about the koff of the same binder?
Answer: The koff was no more than 2 s⁻¹.

Question: How did the Kd turn out when B22 was run?
Answer: Its Kd is no more than 1000 nM.

Question: And the koff?
Answer: Its koff is no more than 2 s⁻¹.

Question: B23 was tested. Which Kd did it give?
Answer: The Kd was no more than 1000 nM.

Question: And the koff?
Answer: Its koff is no more than 2 s⁻¹.

Source: patent publication US20100135997A1 (MEDGENE, published 2010)
